According to publication PMC12003248, “ERCC6L2 mitigates replication stress and promotes centromere stability” (Cell Reports, 2023):

Columns and labels:
Polα = conditions: cited from earlier work
Source text: Because centromeres impose specific challenges for DNA replication machinery, we next sought to address the impact of ERCC6L2 deficiency on the progression of DNA replication. […] However, further analyses, based on EdU incorporation over longer time frames, highlighted differences between the two cell lines. Loss of ERCC6L2 reduced efficiency of EdU incorporation in unperturbed c ...

[1] = system: double-stranded DNA derived from α-satellite DNA sequence; test: EMSA, double-stranded DNA; assay type: binding; conditions: His-tagged fragment; 2.5 nM labeled substrate; 30 min, room temperature; 50 mM Tris-HCl pH 7.5; 11, 22, 44, 88, 176 nM (legend Figure 1H)
[2] = system: single-stranded DNA derived from α-satellite DNA sequence; test: EMSA, single-stranded DNA; assay type: binding; conditions: His-tagged fragment; 2.5 nM labeled substrate; 30 min, room temperature; 50 mM Tris-HCl pH 7.5; 11, 22, 44, 88, 176 nM (legend Figure 1H)
endogenous PCNA = test: Immunoprecipitation of Strep-tagged ERCC6L2 fragment, endogenous PCNA; assay type: binding, human; conditions: 293T cells, Twin-Strep construct, StrepTactin beads, immunoblot

For O=C(O)c1ccc2cc(-c3ccc(O)c(C45CC6CC(CC(C6)C4)C5)c3)ccc2c1 [CD437], the “uncoupling of DNA synthesis” value (Polα) is given as “causes uncoupling of leading and lagging strand DNA synthesis”.

B1: ERCC6L2^1053−1247: purified His-tagged ERCC6L2 fragment containing the VIGS motif (protein, UniProt Q5T890 1053-1247, looked up, fragment)
chain: FSFSKQSHRPRTIRDRTSFSSKLPSHNKKNSTFIPRKPMKCSNEKVVNQEQSYESMDKFLDGVQEVAYIHSNQNVIGSSKAENHMSRWAAHDVFELKQFSQLPANIAVCSSKTYKEKVDADTLPHTKKGQQPSEGSISLPLYISNPVNQKKKKVYHTNQTTFIIGETPKGIRRKQFEEMASYFNSSSVNEFAKHI
modifications: His tag
notes: purified His-tagged ERCC6L2 fragment containing the VIGS motif
In the case of B1, the “formation of nucleoprotein complexes with double-stranded DNA (EMSA)” value [1] is reported as “formed stable nucleoprotein complexes” and the “formation of nucleoprotein complexes with single-stranded DNA (EMSA)” value [2] is reported as “formed stable nucleoprotein complexes”.

B2: ERCC6L2^701−1053: Strep-tagged ERCC6L2 fragment (protein)
chain: QGSCLTKDILEREGQVEAGIMTATTWLKEGPPAHKLEMPRQPDCQECRGTEQAAEPLAKEACDLCSDFSDEEPVGATGIKTAKNKAPDSSKASSSPGQLTLLQCGFSKLLETKCKAVEDSDGNTASDDESSDEQPTCLSTEAKDAGCEKNQDSLGTSKHQKLDNILNPKEKHIFYKSEKILEQNISSKSDEKKIKNTDKHCILQNVTESEDSDVICPTQYTTERFPDNSIRFKPPLEGSEDSETEHTVKTRNNDNSRNTDDKRNGIISKKLSPENTTLKSILKRKGTSDISDESDDIEISSKSRVRKRASSLRFKRIKETKKELHNSPKTMNKTNQVYAANEDHNSQFIDDYS
modifications: left off: Strep tag, end not stated, kept
notes: Strep-tagged ERCC6L2 fragment
With B2 the “endogenous PCNA in immunocomplexes” value (endogenous PCNA) was “detected”.
